In patent publication US20190241669A1 (published 2019):

Key:
Human BCMA (human) = Human BCMA (human) (UniProt Q02223); assay: SPR, IgG on chip, huBCMA analyte
cynomolgus monkey BCMA = target: T1, cynomolgus monkey BCMA (cynomolgus monkey, UniProt A0A2K5UD97 1-53); assay: SPR, IgG on chip, cyBCMA analyte
T1 construct: Soluble analyte in SPR; construct not described; also called cyBCMA; Cyno BCMA
T1 sequence (A0A2K5UD97 entry or part of it): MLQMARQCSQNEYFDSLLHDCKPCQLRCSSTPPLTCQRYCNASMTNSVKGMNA

Binder	Kd (Human BCMA (human)) [nM]	koff (Human BCMA (human)) [s⁻¹]	kon (Human BCMA (human)) [M⁻¹ s⁻¹]	Kd (cynomolgus monkey BCMA) [nM]	koff (cynomolgus monkey BCMA) [s⁻¹]	kon (cynomolgus monkey BCMA) [M⁻¹ s⁻¹]
COMBO_Rd4_0.6nM_C21 (antibody, V domains shown, IgG) VH: EVQLLESGGGLVQPGGSLRLSCAASGFTFSSYPMSWVRQAPGKGLEWVSAIGGSGGSLPYADSVKGRFTISRDNSKNTLYLQMNSLRAEDTAVYYCARYWPMDSWGQGTLVTVSS VL: EIVLTQSPGTLSLSPGERATLSCRASQSVSSSYLAWYQQKPGQAPRLLMYDASIRATGIPDRFSGSGSGTDFTLTISRLEPEDFAVYYCQQYQSWPLTFGQGTKVEIK	0.009	0.000115	1.34e+07	0.084	0.000304	3.63e+06
A02_Rd4_6nM_C05 (antibody, V domains shown, IgG) VH: EVQLLESGGGLVQPGGSLRLSCAASGFTFSSYAMNWVRQAPGKGLEWVSAIFASGGSTYYADSVKGRFTISRDNSKNTLYLQMNSLRAEDTAVYYCARYWPMTPWGQGTLVTVSS VL: EIVLTQSPGTLSLSPGERATLSCRASQSVSSSYLAWYQQKPGQAPRLLMYDASIRATGIPDRFSGSGSGTDFTLTISRLEPEDFAVYYCQQYQRWPLTFGQGTKVEIK	0.099	0.000308	3.1e+06	0.95	0.00129	1.36e+06
A02_Rd4_0.6nM_C03 (antibody, V domains shown, IgG) VH: EVQLLESGGGLVQPGGSLRLSCAASGFTFSSYAMNWVRQAPGKGLEWVSAISDSGGSKWYADSVKGRFTISRDNSKNTLYLQMNSLRAEDTAVYYCARYWPMSLWGQGTLVTVSS VL: EIVLTQSPGTLSLSPGERATLSCRASQSVSSSYLAWYQQKPGQAPRLLMYDASIRATGIPDRFSGSGSGTDFTLTISRLEPEDFAVYYCQQYFTWPLTFGQGTKVEIK	0.043	0.000182	4.27e+06	0.201	0.000426	2.12e+06
A02_Rd4_0.6nM_C06 (antibody, V domains shown, IgG) VH: EVQLLESGGGLVQPGGSLRLSCAASGFTFSSYAMNWVRQAPGKGLEWVSAISDSGGSAWYADSVKGRFTISRDNSKNTLYLQMNSLRAEDTAVYYCARYWPMSLWGQGTLVTVSS VL: EIVLTQSPGTLSLSPGERATLSCRASQSVSVLYLAWYQQKPGQAPRLLMYDASIRATGIPDRFSGSGSGTDFTLTISRLEPEDFAVYYCQQYQRWPLTFGQGTKVEIK	0.021	7.37e-05	3.49e+06	0.058	0.000105	1.81e+06
A02_Rd4_0.6nM_C13 (antibody, V domains shown, IgG) VH: EVQLLESGGGLVQPGGSLRLSCAASGFTFSSYAMNWVRQAPGKGLEWVSAISDSGGYRYYADSVKGRFTISRDNSKNTLYLQMNSLRAEDTAVYYCARYWPMSLWGQGTLVTVSS VL: EIVLTQSPGTLSLSPGERATLSCRASQSVSSSYWAWYQQKPGQAPRLLMYDASIRATGIPDRFSGSGSGTDFTLTISRLEPEDFAVYYCQQYESWPLTFGQGTKVEIK	0.066	0.000566	8.53e+06	0.56	0.00128	2.29e+06
A02_Rd4_6nM_C07 (antibody, V domains shown, IgG) VH: EVQLLESGGGLVQPGGSLRLSCAASGFTFSSYAMNWVRQAPGKGLEWVSAIGGSGGSLPYADSVKGRFTISRDNSKNTLYLQMNSLRAEDTAVYYCARYWPMDSWGQGTLVTVSS VL: EIVLTQSPGTLSLSPGERATLSCRASQSVSPYYLAWYQQKPGQAPRLLMYDASIRATGIPDRFSGSGSGTDFTLTISRLEPEDFAVYYCQQYERWPLTFGQGTKVEIK	0.128	0.000189	1.48e+06	1.14	0.000786	691000
A02_Rd4_6nM_C08 (antibody, V domains shown, IgG) VH: EVQLLESGGGLVQPGGSLRLSCAASGFTFSSYAMNWVRQAPGKGLEWVSAILDSGGSTYYADSVKGRFTISRDNSKNTLYLQMNSLRAEDTAVYYCARYWPMSPWGQGTLVTVSS VL: EIVLTQSPGTLSLSPGERATLSCRASQSVSFLYLAWYQQKPGQAPRLLMYDASIRATGIPDRFSGSGSGTDFTLTISRLEPEDFAVYYCQQYGSWPLTFGQGTKVEIK	0.188	0.000738	3.92e+06	5.07	0.0113	2.23e+06
A02_Rd4_0.6nM_C10 (antibody, V domains shown, IgG) VH: EVQLLESGGGLVQPGGSLRLSCAASGFTFSSYAMNWVRQAPGKGLEWVSAISGWGGSLPYADSVKGRFTISRDNSKNTLYLQMNSLRAEDTAVYYCARYWPMDSWGQGTLVTVSS VL: EIVLTQSPGTLSLSPGERATLSCRASQSVSAQYLAWYQQKPGQAPRLLMYDASIRATGIPDRFSGSGSGTDFTLTISRLEPEDFAVYYCQQYQRWPLTFGQGTKVEIK	0.129	0.000296	2.3e+06	1.84	0.00163	883000
A02_Rd4_6nM_C23 (antibody, V domains shown, IgG) VH: EVQLLESGGGLVQPGGSLRLSCAASGFTFSSYAMNWVRQAPGKGLEWVSAISDSGGSGWYADSVKGRFTISRDNSKNTLYLQMNSLRAEDTAVYYCARYWPMSLWGQGTLVTVSS VL: EIVLTQSPGTLSLSPGERATLSCRASQSVSVEYLAWYQQKPGQAPRLLMYDASIRATGIPDRFSGSGSGTDFTLTISRLEPEDFAVYYCQQYARWPLTFGQGTKVEIK	0.021	0.000255	1.22e+07	0.157	0.000414	2.63e+06
A02_Rd4_0.6nM_C01 (antibody, V domains shown, IgG; also called P5AC1) VH: EVQLLESGGGLVQPGGSLRLSCAASGFTFSSYAMNWVRQAPGKGLEWVSAILSSGGSTYYADSVKGRFTISRDNSKNTLYLQMNSLRAEDTAVYYCARYWPMDIWGQGTLVTVSS VL: EIVLTQSPGTLSLSPGERATLSCRGGQSVSSSYLAWYQQKPGQAPRLLMYDASIRATGIPDRFSGSGSGTDFTLTISRLEPEDFAVYYCQQYQSWPLTFGQGTKVEIK	0.193	0.000915	4.74e+06	0.655	0.00157	2.39e+06
A02_Rd4_6nM_C10 (antibody, V domains shown, IgG) VH: EVQLLESGGGLVQPGGSLRLSCAASGFTFSSYAMNWVRQAPGKGLEWVSAISDSGGSCWYADSVKGRFTISRDNSKNTLYLQMNSLRAEDTAVYYCARYWPMTPWGQGTLVTVSS VL: EIVLTQSPGTLSLSPGERATLSCRASQSVEMSYLAWYQQKPGQAPRLLMYDASIRATGIPDRFSGSGSGTDFTLTISRLEPEDFAVYYCQQYAHWPLTFGQGTKVEIK	0.07	0.000315	4.51e+06	0.472	0.000898	1.9e+06
A02_Rd4_0.6nM_C09 (antibody, V domains shown, IgG) VH: EVQLLESGGGLVQPGGSLRLSCAASGFTFSSYAMNWVRQAPGKGLEWVSAISDSGGSMWYADSVKGRFTISRDNSKNTLYLQMNSLRAEDTAVYYCARYWPMSLWGQGTLVTVSS VL: EIVLTQSPGTLSLSPGERATLSCRASQSVSSSYLAWYQQKPGQAPRLLMYDASIRATGIPDRFSGSGSGTDFTLTISRLEPEDFAVYYCQQYQSWPLTFGQGTKVEIK	0.018	9.75e-05	5.5e+06	0.082	0.000174	2.13e+06
A02_Rd4_0.6nM_C26 (antibody, V domains shown, IgG) VH: EVQLLESGGGLVQPGGSLRLSCAASGFTFSSYAMNWVRQAPGKGLEWVSAILMSGGSTYYADSVKGRFTISRDNSKNTLYLQMNSLRAEDTAVYYCARYWPMSLWGQGTLVTVSS VL: EIVLTQSPGTLSLSPGERATLSCGPSQSVSSSYLAWYQQKPGQAPRLLMYDASIRATGIPDRFSGSGSGTDFTLTISRLEPEDFAVYYCQQYQSWPLTFGQGTKVEIK	0.061	0.000443	7.26e+06	0.941	0.00256	2.71e+06
A02_Rd4_6nM_C04 (antibody, V domains shown, IgG) VH: EVQLLESGGGLVQPGGSLRLSCAASGFTFSSYAMNWVRQAPGKGLEWVSAIMSSGGPLYYADSVKGRFTISRDNSKNTLYLQMNSLRAEDTAVYYCARYWPMALWGQGTLVTVSS VL: EIVLTQSPGTLSLSPGERATLSCRASQSVSALYLAWYQQKPGQAPRLLMYDASIRATGIPDRFSGSGSGTDFTLTISRLEPEDFAVYYCQQYQVWPLTFGQGTKVEIK	0.135	0.000603	4.47e+06	0.381	0.000831	2.18e+06
A02_Rd4_6nM_C03 (antibody, V domains shown, IgG) VH: EVQLLESGGGLVQPGGSLRLSCAASGFTFSSYAMNWVRQAPGKGLEWVSAISDSGGSTYYADSVKGRFTISRDNSKNTLYLQMNSLRAEDTAVYYCARYWPMDIWGQGTLVTVSS VL: EIVLTQSPGTLSLSPGERATLSCRASQSVSNLYLAWYQQKPGQAPRLLMYDASIRATGIPDRFSGSGSGTDFTLTISRLEPEDFAVYYCQQYQGWPLTFGQGTKVEIK	0.075	0.000126	1.69e+06	0.158	0.000185	1.17e+06
A02_Rd4_6nM_C22 (antibody, V domains shown, IgG) VH: EVQLLESGGGLVQPGGSLRLSCAASGFTFSSYAMNWVRQAPGKGLEWVSAVLDSGGSTYYADSVKGRFTISRDNSKNTLYLQMNSLRAEDTAVYYCARYWPMTPWGQGTLVTVSS VL: EIVLTQSPGTLSLSPGERATLSCRASQSVSSSYLAWYQQKPGQAPRLLMYDASIRATGIPDRFSGSGSGTDFTLTISRLEPEDFAVYYCQQYQVWPLTFGQGTKVEIK	0.054	0.000182	3.38e+06	0.176	0.000324	1.84e+06
A02_Rd4_6nM_C19 (antibody, V domains shown, IgG) VH: EVQLLESGGGLVQPGGSLRLSCAASGFTFSSYAMNWVRQAPGKGLEWVSAISDSGGSRWYADSVKGRFTISRDNSKNTLYLQMNSLRAEDTAVYYCARYWPMSDWGQGTLVTVSS VL: EIVLTQSPGTLSLSPGERATLSCRASQSVSVLYLAWYQQKPGQAPRLLMYDASIRATGIPDRFSGSGSGTDFTLTISRLEPEDFAVYYCQQYLAWPLTFGQGTKVEIK	0.049	0.000148	3e+06	0.26	0.000661	2.54e+06
